Measurements as given in FireProtDB (doi:10.1021/bi052091o).
Values joined by “and” are separate entries in the source; they are usually repeats but may differ in a detail not shown here. Identical values can stand only once.

Details: Rattus norvegicus; pH 7; 25 °C; Urea; Fluorescence; NaPO4 25 mM; NaCl 75 mM; whole UniProt chain shown

B1: Fatty acid-binding protein, intestinal wild type, P02693 (protein)
chain: MAFDGTWKVDRNENYEKFMEKMGINVVKRKLGAHDNLKLTITQEGNKFTVKESSNFRNIDVVFELGVDFAYSLADGTELTGTWTMEGNKLVGKFKRVDNGKELIAVREISGNELIQTYTYEGVEAKRIFKKE
For B1, the denaturant m value was 0.83 kcal/mol/M and 0.74 kcal/mol/M, the “denaturant midpoint (higher = more stable)” value was 4.61 M and 4.77 M and the unfolding free energy was 3.82 kcal/mol and 3.54 kcal/mol.
